Reference: the supplement of paper PMC10724198
± gives the standard deviation of the averaged measurements.

System: Saccharomyces cerevisiae
Assay: protein stability index of tFT-peptide fusion (C-terminal peptide) (PSI (0-1 scale)); higher = more stable (slower turnover)
Conditions: genetic background: wild type; temperature: 30 C
Method: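 Multiplexed protein stability (MPS) profiling in S. cerevisiae. Random 12-aa peptides (tFT-X12 library) are fused to the C-terminus of a sfGFP-mCherry tandem fluorescent timer, after mCherry and a GGGS linker. Cells are FACS-sorted into 8 mCherry/sfGFP bins and deep-sequenced. The protein stability index (PSI) is the read-weighted bin average, scaled from 0 (unstable) to 1 (stable). Only peptides with >10 reads are reported; cells were grown at 30 °C in SC-His with glucose.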
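Also: PSI is a weighted mean of sequencing reads over stability bins, variants kept only with over 10 reads, mCherry proximal and sfGFP distal, peptide attached via GGGS linker.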

| Sequence | protein stability index |
| --- | --- |
| FVFAYLPSYEAM | 0.729 ± 0.023 |
| FVGAEWLLFYFS | 0.677 ± 0.069 |
| FVPPGTTSPNTT | 0.731 ± 0.059 |
| FVPRFPGTTINS | 0.681 ± 0.049 |
| FVSLVGGFVGTV | 0.646 ± 0.037 |
| FVSPVPPRRVGA | 0.704 ± 0.037 |
| FWGCCGGVGPRG | 0.709 ± 0.0077 |
| FWHERVSSTVKR | 0.731 ± 0.025 |
| FWKSVMRYYFKR | 0.669 ± 0.027 |
| FWPPPATSAAPC | 0.79 ± 0.011 |
| FYFLFVFICLRV | 0.6642 ± 0.0062 |
| FYIQVFTPLGGS | 0.639 ± 0.0097 |
| FYLRRNILGQDC | 0.695 ± 0.0096 |
| FYPLPSYFAYPI | 0.663 ± 0.022 |
| FYSLFLPRPFLS | 0.579 ± 0.024 |
| FYVTRIGPLDMS | 0.801 ± 0.023 |
| GAAGASCDCTGG | 0.695 ± 0.07 |
| GACIRLLPSFGY | 0.6434 ± 0.0041 |
| GACWRDSHSGGD | 0.683 ± 0.023 |
| GAEKGSVPGGDK | 0.654 ± 0.05 |
| GAEQSTDEFIRG | 0.7058 ± 0.0012 |
| GAGAAVHRAAPG | 0.672 ± 0.029 |
| GAGFCSGLRGAG | 0.689 ± 0.088 |
| GAGGVGGTSGGK | 0.675 ± 0.084 |
| GAGLWGGRGRRW | 0.6489 ± 0.0063 |

| Sequence | protein stability index |
| --- | --- |
| GAGRAVRAFCVL | 0.651 ± 0.02 |
| GAGRGKEREYRP | 0.61356 ± 0.00019 |
| GAGVLTLDNRRV | 0.674 ± 0.019 |
| GAKAARTTITSG | 0.653 ± 0.026 |
| GAKSENSLTTVQ | 0.673 ± 0.013 |
| GALANPLGHSHL | 0.792 ± 0.11 |
| GALGCHPGLPSP | 0.714 ± 0.025 |
| GALIGNDGHVSG | 0.679 ± 0.027 |
| GANLVTGKLTDG | 0.693 ± 0.036 |
| GAQSAVLQNPPA | 0.6238 ± 0.0042 |
| GARERRRRRRRP | 0.713 ± 0.025 |
| GARGGGRSRGTR | 0.779 ± 0.091 |
| GARRVVFSSVLQ | 0.774 ± 0.13 |
| GASCRDCVTRGS | 0.745 ± 0.042 |
| GASGGGQSSFGE | 0.669 ± 0.013 |
| GASVWGRGTRKI | 0.6902 ± 0.0059 |
| GATGGACGGWAG | 0.67249 ± 0.00044 |
| GATRCQTYPAGA | 0.686 ± 0.04 |
| GAVTNHAMASRP | 0.725 ± 0.035 |
| GAVVLSRFRCLP | 0.639 ± 0.035 |
| GAWASLPGLISP | 0.729 ± 0.058 |
| GAWGFVWLGVGC | 0.658 ± 0.031 |
| GAWWRMEQAFGV | 0.757 ± 0.034 |
| GCADNNRLGNVV | 0.66 ± 0.011 |
| GCAWGVKYEVIL | 0.637 ± 0.05 |

| Sequence | protein stability index |
| --- | --- |
| GCDELGGRRFGR | 0.7207 ± 0.0051 |
| GCFDLNPDLFQG | 0.688 ± 0.022 |
| GCFLIANMCLLG | 0.665 ± 0.0035 |
| GCLFSVLQSPSV | 0.721 ± 0.02 |
| GCLSPSTPLWFP | 0.71454 ± 0.00037 |
| GCLSRLCKGKVM | 0.599 ± 0.033 |
| GCRCSSGLGGFW | 0.649 ± 0.11 |
| GCVPGVGRDVVV | 0.719 ± 0.019 |
| GCWHFWQFFCHY | 0.678 ± 0.024 |
| GDHGSYAGPALL | 0.673 ± 0.047 |
| GDITEVDISKHI | 0.75 ± 0.051 |
| GDLGPADRQPAG | 0.639 ± 0.027 |
| GDLYWLRNAMSL | 0.731 ± 0.012 |
| GDSPSGKPAERT | 0.661 ± 0.065 |
| GDTQESSHIRIY | 0.669 ± 0.051 |
| GEAGICAGTAGG | 0.693 ± 0.041 |
| GEALSFIFVSPP | 0.722 ± 0.033 |
| GEAVAGRRQESP | 0.695 ± 0.073 |
| GEDFRVLVFVRL | 0.556 ± 0.0099 |
| GEFARSTRLAWV | 0.682 ± 0.027 |
| GEFISRSSRIEI | 0.64 ± 0.042 |
| GEGGGLRARQKP | 0.673 ± 0.057 |
| GEGHGGMLDVVM | 0.686 ± 0.066 |
| GELGGRAWVERG | 0.683 ± 0.044 |
| GELGGRSWVERG | 0.648 ± 0.099 |

| Sequence | protein stability index |
| --- | --- |
| GELPGLFRCCLM | 0.492 ± 0.072 |
| GENLGGDVFNIG | 0.73 ± 0.0031 |
| GENPEPRHGRGN | 0.698 ± 0.022 |
| GEQGAPLSIRYS | 0.622 ± 0.021 |
| GEQGVLARSDRI | 0.589 ± 0.025 |
| GEQSYGGHSVQT | 0.642 ± 0.054 |
| GERSGVSIRHEG | 0.726 ± 0.016 |
| GESIIQTCLNSI | 0.845 ± 0.017 |
| GESLSLVRIWRK | 0.625 ± 0.13 |
| GESRPPLASPHP | 0.708 ± 0.0087 |
| GETGGACGVWAG | 0.685 ± 0.066 |
| GETQAAGAKYLG | 0.724 ± 0.019 |
| GEYEHHKNKKRR | 0.7 ± 0.075 |
| GFALRESWFIFV | 0.644 ± 0.018 |
| GFAVGDQFIVPL | 0.687 ± 0.048 |
| GFCLIVGVVPAL | 0.5179 ± 0.0024 |
| GFHSVVMTFLRY | 0.63 ± 0.017 |
| GFILTVAPNLEH | 0.648 ± 0.031 |
| GFKMSMGCEQSS | 0.722 ± 0.076 |
| GFLCARGAHSMT | 0.704 ± 0.013 |
| GFLCDTVRLGCA | 0.702 ± 0.058 |
| GFLCLISSLGFM | 0.687 ± 0.051 |
| GFLSYWYISFPF | 0.641 ± 0.014 |
| GFPRSPALCSQP | 0.689 ± 0.017 |
| GFRDGVASLFVR | 0.757 ± 0.026 |

| Sequence | protein stability index |
| --- | --- |
| GFRWGYIGGWRW | 0.741 ± 0.01 |
| GFSFSSFLRGLF | 0.625 ± 0.017 |
| GFTAERWRVKGR | 0.674 ± 0.058 |
| GFVAGGVCSRPL | 0.715 ± 0.076 |
| GGAAWRRGVGGV | 0.66 ± 0.025 |
| GGAGAGHDPRRN | 0.705 ± 0.019 |
| GGAGGRRRIGGG | 0.622 ± 0.048 |
| GGARGEDRRAYV | 0.668 ± 0.054 |
| GGCCLWVGFQGG | 0.703 ± 0.012 |
| GGCGGGCGACVV | 0.701 ± 0.025 |
| GGCGGRGGVVVR | 0.687 ± 0.02 |
| GGCVCGPRVLGV | 0.67 ± 0.031 |
| GGCVGVLGGWGL | 0.694 ± 0.0083 |
| GGCVVKVRAQGP | 0.636 ± 0.01 |
| GGEGPKGDRGRA | 0.649 ± 0.018 |
| GGEVFGGRCSAV | 0.734 ± 0.12 |
| GGFGSCVGHVLG | 0.735 ± 0.077 |
| GGFRWLGGSAPA | 0.727 ± 0.072 |
| GGFVISGDVTVG | 0.688 ± 0.038 |
| GGFVVGGGGWLG | 0.733 ± 0.033 |
| GGGAGGRQGCGG | 0.771 ± 0.027 |
| GGGAGKGPQTRG | 0.676 ± 0.062 |
| GGGAGVRKWRKG | 0.703 ± 0.058 |
| GGGAGWGWGGRM | 0.673 ± 0.017 |
| GGGAPADSGPGG | 0.628 ± 0.036 |

| Sequence | protein stability index |
| --- | --- |
| GGGARCGLGGRM | 0.7 ± 0.053 |
| GGGDRDGGTASG | 0.698 ± 0.073 |
| GGGFLGGTVAAV | 0.7 ± 0.032 |
| GGGGAGGGGGRV | 0.676 ± 0.038 |
| GGGGAGGWGAVG | 0.67 ± 0.036 |
| GGGGFQVAVGCR | 0.714 |
| GGGGGGGAWKGV | 0.69 ± 0.02 |
| GGGGGGGGGAGG | 0.674 ± 0.023 |
| GGGGGGPGGVLK | 0.706 ± 0.092 |
| GGGGGGRAGVWG | 0.687 ± 0.028 |
| GGGGGGSRVWSA | 0.698 ± 0.083 |
| GGGGGGVEPCFV | 0.668 ± 0.041 |
| GGGGGKAGSHLG | 0.632 ± 0.01 |
| GGGGGRAQEVQG | 0.717 ± 0.059 |
| GGGGGRAYSWWV | 0.699 ± 0.014 |
| GGGGGRGQGWYR | 0.651 ± 0.032 |
| GGGGGWAGENTR | 0.715 ± 0.075 |
| GGGGLREGGRWE | 0.743 ± 0.038 |
| GGGGRVRDALGM | 0.696 ± 0.048 |
| GGGGSVGGGALR | 0.651 ± 0.0088 |
| GGGLGRVWVKLG | 0.716 ± 0.08 |
| GGGLRGVGGLGR | 0.602 ± 0.044 |
| GGGMCGRSGGRR | 0.706 ± 0.011 |
| GGGRFRRDRTYE | 0.712 ± 0.028 |
| GGGRWSAGVVEG | 0.829 ± 0.1 |

| Sequence | protein stability index |
| --- | --- |
| GGGSGGVVGGIS | 0.674 ± 0.018 |
| GGGSITTFIGDE | 0.695 ± 0.018 |
| GGGSRLWGGGRV | 0.728 ± 0.028 |
| GGGVATGGGGGG | 0.599 ± 0.029 |
| GGGVGGPGGVLK | 0.675 ± 0.075 |
| GGGVGWWVSYVG | 0.673 ± 0.012 |
| GGGVRLMSIHRG | 0.662 ± 0.012 |
| GGGVSFWLGVVA | 0.6211 ± 0.0026 |
| GGGWCESRGDGA | 0.655 ± 0.085 |
| GGGWGSRGVCLG | 0.65 ± 0.11 |
| GGGWRGRRVADF | 0.701 ± 0.043 |
| GGHGRREEKGQR | 0.6845 ± 0.0058 |
| GGHLTMMFGRLF | 0.713 ± 0.019 |
| GGKWGVAGGGPW | 0.738 ± 0.074 |
| GGLGLVESVFVI | 0.67 ± 0.052 |
| GGLGVAGAGVVC | 0.655 ± 0.042 |
| GGPASSGLMDGY | 0.698 ± 0.0062 |
| GGPGGGGVSDGM | 0.804 ± 0.14 |
| GGPIQAGLSFPG | 0.685 ± 0.025 |
| GGPRGPPMLIWE | 0.738 ± 0.037 |
| GGRFGMWRGGQA | 0.7245 ± 0.0064 |
| GGRGAVSGIVRK | 0.613 ± 0.014 |
| GGRGRGARPGGR | 0.647 ± 0.027 |
| GGRGSRWAGPRC | 0.669 ± 0.038 |
| GGRPIRNTTREG | 0.655 ± 0.022 |

| Sequence | protein stability index |
| --- | --- |
| GGRREGRGFNDG | 0.676 ± 0.025 |
| GGRRYSRPGQKH | 0.661 ± 0.018 |
| GGRSSGRLMGKE | 0.712 ± 0.013 |
| GGRTRPGGLSRP | 0.678 ± 0.035 |
| GGSFRLLAVVFP | 0.635 ± 0.044 |
| GGSRRANRQMRK | 0.7148 ± 0.0045 |
| GGSRRRAVGAGV | 0.709 ± 0.057 |
| GGSSEKVLCIWR | 0.7246 ± 0.0014 |
| GGTCWEGEVVDV | 0.641 ± 0.029 |
| GGTKGKAGGEAA | 0.672 ± 0.043 |
| GGVFREEGAAER | 0.693 ± 0.021 |
| GGVGSMITWRVG | 0.689 ± 0.082 |
| GGVGWWVGVVWG | 0.624 ± 0.071 |
| GGVLDGVGVRMG | 0.69 ± 0.054 |
| GGVVVGRGVCVF | 0.626 ± 0.032 |
| GGVVVRGRASAR | 0.717 ± 0.02 |
| GGWCWGWGPGSG | 0.687 ± 0.056 |
| GGWGGVCGACVV | 0.702 ± 0.035 |
| GGWGRKCGGSGG | 0.711 ± 0.018 |
| GGWGWEGRGGSG | 0.677 ± 0.014 |
| GGWPLSPSFGWG | 0.571 |
